Test results taken from patent US20150268247A1, “Assay for Screening of Anti-Viral Compounds That Inhibit Specific Interaction Interfaces Between Cullin5 and an ElonginB/ElonginC/ CBF-beta/HIV-1 Vif Complex” (UNIVERSITY OF ROCHESTER, priority 2012, published 2015).

Target: T1, Cul5(N) (Homo sapiens, UniProt Q93034, L345D/V341R)
T1 construct: GST with 3C protease site (N, cleaved yes); made in house; host or cells: E. coli BL21(DE3), as for VifC/EloB/C
T1 sequence (Q93034 with tags, fused parts or gaps V341R/L345D): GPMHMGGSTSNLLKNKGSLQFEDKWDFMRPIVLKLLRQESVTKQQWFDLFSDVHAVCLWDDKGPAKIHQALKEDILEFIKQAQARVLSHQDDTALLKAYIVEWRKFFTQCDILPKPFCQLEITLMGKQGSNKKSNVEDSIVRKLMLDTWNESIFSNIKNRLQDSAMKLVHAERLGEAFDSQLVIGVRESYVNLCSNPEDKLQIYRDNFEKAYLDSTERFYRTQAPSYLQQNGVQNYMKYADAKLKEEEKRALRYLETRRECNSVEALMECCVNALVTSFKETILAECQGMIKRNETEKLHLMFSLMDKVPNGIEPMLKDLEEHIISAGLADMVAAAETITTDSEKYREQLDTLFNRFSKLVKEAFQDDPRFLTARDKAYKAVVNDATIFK
Test: ITC titration of Cul5(N) to CBFβ alone
Format: binding
Settings: FIG. 4D
Protocol: ITC experiments were conducted with a VP-ITC isothermal titration calorimeter (GE Healthcare) at temperatures ranging from 293.15 to 308.15 K using a reference power of 15 μcal s^−1 and a 307 rpm stirring rate. Purified protein was dialyzed for 8 h at 4° C. against 1300 volumes of ITC buffer A [0.125 M NaCl, 0.02 M HEPES (pH 7.4), 0.0002 M TCEP] or ITC buffer B [0.125 M NaCl, 0.02 M phosphate (pH 7.4), 0.0002 M TCEP]. Twenty-nine 10 μl aliquots of protein in the syringe were injected into the sample cell at time intervals ranging from 240 to 360 s. The concentration of protein in the syringe ranged from 120 to 210 μM, while the concentration of protein in the sample cell ranged from 12 to 27 μM. Errors in the thermodynamic parameters were obtained from the standard deviation resulting from average values with at least two replicates. […] As such, for all protein-into-protein experiments, the heats of injection were accounted for by subtracting the average heat of the last three injections from each data point of an experiment. All data were fit with the “One Set of Sites” curve-fitting model to determine the parameters Ka, n, and AH using the Origin software v7.0 (GE Healthcare). ΔG was calculated from ΔG=−RT ln Ka, where R=1.9872 cal K^−1 mol^−1, and T=absolute temperature (Kelvin). ΔS was calculated from the equation, ΔG=ΔH−TΔS.

B1: CBFβ: Recombinant human core-binding factor β subunit isoform 2 (protein, listed as Homo sapiens)
chain: MGHHHHHHLEVLFQGPPRVVPDQRSKFENEEFFRKLSRECEIKYTGFRDRPHEERQARFQNACRDGRSEIAFVATGTNLSLQFFPASWQGEQRQTPSREYVDLEREAGKVYLKAPMILNGVCVIWKGWIDLQRLDGMGCLEFDEERAQQEDALAQQAFEEARRRTREFEDRDRSHREEMEVRVSQLLAVTGKKTTRP
Q: With B1 as the molecule, how does the “interaction of CBFβ with Cul5(N) alone” value read?
A: Its value is “did not interact”.
